In PMC6050298, “Highly active enzymes by automated combinatorial backbone assembly and sequence design” (Nature Communications, 2018):

Legend:
purified protein [1] = substrate: O=[N+]([O-])c1ccc(O[C@@H]2OC[C@@H](O[C@@H]3OC[C@@H](O)[C@H](O)[C@H]3O)[C@H](O)[C@H]2O)cc1; test: purified protein; type: biochemical, Geobacillus stearothermophilus; settings: 37 °C, 50 mM Tris pH 6.5, 150 mM NaCl, MBP fusion
purified protein [2] = substrate: O=[N+]([O-])c1ccc(O[C@@H]2OC[C@@H](O[C@@H]3OC[C@@H](O)[C@H](O)[C@H]3O)[C@H](O)[C@H]2O)cc1; test: purified protein; type: biochemical, synthetic construct; settings: 37 °C, 50 mM Tris pH 6.5, 150 mM NaCl, MBP fusion

| Protein | Km (purified protein [1]) [µM] | kcat (purified protein [1]) [s⁻¹] | Km (purified protein [2]) [µM] | kcat (purified protein [2]) [s⁻¹] |
| --- | --- | --- | --- | --- |
| Xylanase from Geobacillus stearothermophilus (PDB ID: 4PUD) (Geobacillus stearothermophilus) (protein, synthetic codon-optimised gene, N-terminal His6-MBP fusion kept in assay, E. coli BL21 DE3; monomer; 4PUD names the template structure) KPHISALNAPQLDQRYKNEFTIGAAVEPYQLQNEKDVQMLKRHFNSIVAENVMKPISIQPEEGKFNFEQADRIVKFAKANGMDIRFHTLVWHSQVPQWFFLDKEGKPMVNETDPVKREQNKQLLLKRLETHIKTIVERYKDDIKYWDVVNEVVGDDGKLRNSPWYQIAGIDYIKVAFQAARKYGGDNIKLYMNDYNTEVEPKRTALYNLVKQLKEEGVPIDGIGHQSHIQIGWPSEAEIEKTINMFAALGLDNQITELDVSMYGWPPRAYPTYDAIPKQKFLDQAARYDRLFKLYEKLSDKISNVTFWGIADNHTWLDSRADVYYDANGNVVVDPNAPYAKVEKGKGKDAPFVFGPDYKVKPAYWAIIDHK | 160 ± 20 | 6.47 ± 0.04 | – | – |
| xyl3.1 (synthetic construct) (protein, computational design (105 mutations to nearest natural protein), N-terminal His6-MBP fusion kept in assay) TIGSEFKPHISALNAPSLAQRYKDYFYIGAAVEPYQTTKEKDAKMLQRHFNMIVAENAMKPAALEPTEGNFQWADADRIVQFAKENGMELRFHTLVWHNQTPDWFFLDREGKPMVEETDPQKREENRELLLQRLENHIRAVVLRYKDDIKNWDVVNEVVEPNDPGGMRNSPWYQITGTEYIEVAFRAAREAGGEDIKLYMNDYNTEQEPKREYIYRLIKKLLEKGVPIDGVGHQAHVTIDRPPVDEIKKTIQRFADLGLDNQITELDVSLYGWPPRPAYPTYDAIPEERFQAQADRYRQLFELFEELKDHISAVTFWGIADNHTWLDDRAREYNDGVGKDAPFVFDPNYRVKPAYWAIINHK | – | – | 1820 ± 600 | 17 ± 5 |
